{"source": "paper doi:10.1101/2020.12.03.409995", "about": "“Wild-type sTREM2 blocks Aβ aggregation and neurotoxicity, while the Alzheimer’s R47H mutant does the opposite” (bioRxiv, 2020)", "binders": {"B1": {"name": "dye-labelled wild-type sTREM2 (TREM2 ectodomain) for single-molecule TIRF (domain or fragment, UniProt Q9NZC2 19-143, looked up)", "chain": "HNTTVFQGVAGQSLQVSCPYDSMKHWGRRKAWCRQLGEKGPCQRVVSTHNLWLLSFLRRWNGSTAITDDTLGGTLTITLRNLQPHDAGLYQCQSLHGSEADTLRKVLVEVLADPLDHRDAGDLWF", "modifications": "fluorescent dye label: TAMRA in the results, AF647 in the methods (position not given)", "notes": "TREM2 residues 19-143, wild type; The labelled form of m10; also called TAMRA-dye labelled sTREM2; AF647-TREM2; source: Freestyle 293-F cells, transfected (pHLSec), purified from conditioned medium (IMAC, gel filtration), dye-labelled"}}, "target": "T1, HiLyte Fluor 488-labelled Aβ42 oligomers (human, UniProt P05067 672-713, HiLyte Fluor 488 label (position not given))", "T1 construct": "amyloid beta-peptide 1-42 (Aβ42), human, the cut product of the amyloid precursor protein; Oligomeric species in the 6 hour aggregation mixture, told from monomers by photobleaching; also called Aβ oligomers; oligomeric Aβ; source: synthetic peptide, bought: AnaSpec; aggregated at 0.5 μM in PBS pH 7.4 for 6 hours", "experiment": "single-molecule TIRF two-colour coincidence detection; HiLyte Fluor 488 Aβ42 aggregated 6 hours at 0.5 μM in PBS pH 7.4, dye-labelled sTREM2 added and imaged on slides; monomers told from oligomers by photobleaching; chance coincidence subtracted", "conditions": "both partners purified"}
{"binder": "B1", "values": [{"measurement": "binding result", "value": "binds"}]}
